{
  "source": "patent US20190367636A1",
  "about": "(Bayer, published 2019)",
  "key": {"[1]": {"molecular_target": "T1, activated human coagulation factor XI (hFXIa) (human, UniProt P03951 19-625, limits assumed)", "assay": "cell-based or functional assay"}, "[2]": {"molecular_target": "T1, activated human coagulation factor XI …", "assay": "ELISA, lyophilized formulation after 36 months at 2-8 C, relative to BAY 1213790 reference standard"}, "[3]": {"molecular_target": "T1, activated human coagulation factor XI …", "assay": "SPR (Biacore), binding of lyophilized formulation test sample at t0 to human FXIa, relative to BAY 1213790 reference standard", "procedure": "The binding of the BAY 1213790 test sample and of the BAY 1213790 reference standard to human factor XIa (FXIa) antigen is determined by surface plasmon resonance spectroscopy (SPR, Biacore). The binding affinity of the test sample is compared to the BAY 1213790 reference standard."}},
  "data": [
    {"binder": "BAY1213790 (antibody, human IgG1, kappa, V domains shown, Human monoclonal IgG; also called anti-FXIa antibody; anti-hFXIa monoclonal antibody) VH: EVQLLESGGGLVQPGGSLRLSCAASGFTFSQYGMDWVRQAPGKGLEWVSGIGPSGGSTVYADSVKGRFTISRDNSKNTLYLQMNSLRAEDTAVYYCTRGGPYYYYGMDVWGQGTTVTVSS VL: DIQMTQSPSSLSASVGDRVTITCQASQDISNYLNWYQQKPGKAPKLLIYDASNLETGVPSRFSGSGSGTDFTFTISSLQPEDIATYYCQQADSFPVTFGGGTKVEIKR", "values": [
      {"measurement": "Activity relative to reference (Bioassay), t0", "setting": "[1]", "value": 104, "unit": "%"},
      {"measurement": "Activity relative to reference (Bioassay), t = 36 months at 2-8 C", "setting": "[1]", "value": 101, "unit": "%"},
      {"measurement": "Activity relative to reference (ELISA)", "setting": "[2]", "value": 104, "unit": "%"},
      {"measurement": "Activity relative to reference (Biacore)", "setting": "[3]", "value": 108, "unit": "%"}
    ]}
  ]
}
